One may read the Kd as the concentration at which binding is half-saturated. A high value points to a looser complex.

Consider five molecules from patent US20240254222A1 (Bayer, published 2024).

One assay addresses T1, Sema3D (R&D Systems) (Homo sapiens (Human), UniProt O95025 37-777).
T1 sequence: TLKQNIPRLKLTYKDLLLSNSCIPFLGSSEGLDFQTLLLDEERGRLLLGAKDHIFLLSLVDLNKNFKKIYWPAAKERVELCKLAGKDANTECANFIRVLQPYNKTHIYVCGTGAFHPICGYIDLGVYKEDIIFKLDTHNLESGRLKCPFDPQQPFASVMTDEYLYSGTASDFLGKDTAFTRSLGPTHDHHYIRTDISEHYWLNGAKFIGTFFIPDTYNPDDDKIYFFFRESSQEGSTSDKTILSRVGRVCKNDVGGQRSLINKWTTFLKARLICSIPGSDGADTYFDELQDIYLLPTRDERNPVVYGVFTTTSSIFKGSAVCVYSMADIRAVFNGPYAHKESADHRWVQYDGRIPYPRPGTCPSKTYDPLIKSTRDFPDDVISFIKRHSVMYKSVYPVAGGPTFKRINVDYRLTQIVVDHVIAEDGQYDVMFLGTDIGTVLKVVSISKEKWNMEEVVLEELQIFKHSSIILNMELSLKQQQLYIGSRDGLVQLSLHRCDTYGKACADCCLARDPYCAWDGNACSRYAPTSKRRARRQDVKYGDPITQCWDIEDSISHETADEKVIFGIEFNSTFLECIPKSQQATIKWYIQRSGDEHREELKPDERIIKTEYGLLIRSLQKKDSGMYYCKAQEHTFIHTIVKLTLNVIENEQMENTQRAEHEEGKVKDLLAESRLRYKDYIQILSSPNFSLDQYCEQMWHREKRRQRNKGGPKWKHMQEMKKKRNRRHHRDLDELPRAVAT
The experiment in a line: ELISA. A general note: In an ELISA, binding on a coated surface is turned into a signal by an enzyme label.

Assay [1] addresses T2, Mouse Semaphorin3A-Fc (R&D Systems), TPP-13357 (mouse, UniProt O08665 21-747).
T2 construct: range 21-747; R&D Systems 5926-S3; also called mouse Sema3A-Fc
T2 sequence (looked up): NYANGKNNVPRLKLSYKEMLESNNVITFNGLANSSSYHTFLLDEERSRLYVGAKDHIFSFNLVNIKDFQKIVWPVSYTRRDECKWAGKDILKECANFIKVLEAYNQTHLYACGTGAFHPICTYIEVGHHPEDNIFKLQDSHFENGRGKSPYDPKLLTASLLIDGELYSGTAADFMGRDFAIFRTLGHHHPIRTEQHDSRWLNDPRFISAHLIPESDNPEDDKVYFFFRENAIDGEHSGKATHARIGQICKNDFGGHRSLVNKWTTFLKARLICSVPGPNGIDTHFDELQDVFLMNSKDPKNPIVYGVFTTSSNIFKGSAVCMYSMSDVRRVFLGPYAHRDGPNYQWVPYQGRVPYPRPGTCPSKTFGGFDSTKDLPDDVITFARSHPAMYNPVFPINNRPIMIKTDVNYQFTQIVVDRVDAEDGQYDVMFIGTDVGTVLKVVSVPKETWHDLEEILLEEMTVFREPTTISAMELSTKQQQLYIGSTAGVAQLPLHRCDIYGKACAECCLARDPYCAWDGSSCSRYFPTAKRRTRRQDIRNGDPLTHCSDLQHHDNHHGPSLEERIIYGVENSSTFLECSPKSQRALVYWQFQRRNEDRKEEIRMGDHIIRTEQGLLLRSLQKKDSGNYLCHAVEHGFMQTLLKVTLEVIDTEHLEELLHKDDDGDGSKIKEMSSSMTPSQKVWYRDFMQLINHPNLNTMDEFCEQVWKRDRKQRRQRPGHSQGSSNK
Description: SPR, captured IgG1, Sema3A-Fc analyte. As to the method:
(§1) To assess the binding kinetics and affinity of anti-Sema3A antibodies as well as their species cross-reactivity profile, binding assays were conducted using surface plasmon resonance (SPR). Binding assays were performed on a Biacore T200 instrument or on a Biacore 8K+ instrument (Cytiva) at 25° C. using assay buffer HBS P+, 300 mM NaCl, 0.75 mM CaCl₂, 2.5 mM MgCl₂, 1 mg/ml BSA, 0.05% NaN₃. Antibodies were captured either via anti-human Fc IgGs (“Human antibody capture kit”, Order No. BR100839, Cytiva) or in case of Fc-tagged analytes by anti-human Fab IgGs (“Human Fab capture kit”, Order No. 28958325, Cytiva) covalently amine coupled to a Series S CM5 sensor chip (Cytiva). The amine coupling was carried out according to the manufacturer's instructions using 1-ethyl-3-(3-dimethylaminopropyl) carbodiimide hydrochloride (EDC), N-hydroxysuccinimide (NHS) and ethanolamine HCl, pH 8.5 (“Amine Coupling Kit” BR-1000-50, Cytiva.). For phage display hits Fc-tagged human and mouse Sema3A was used as analytes in a concentration range from 1.56-200 nM. Human, mouse, cynomolgus, rat, dog and pig monovalent Sema3A domain were used as analytes in a concentration series from […] in multi cycle kinetics mode or in 100 nM for binding analysis only. The sensor surface was regenerated with glycine pH 2.0 after each antigen injection. Obtained sensorgrams were double referenced (subtraction of reference flow cell signal and buffer injection) and were fitted to a 1:1 Langmuir binding model to derive kinetic data using the Biacore T200 Evaluation software.

The target in assay [2] is T3, Human Semaphorin3A-Fc (R&D Systems), TPP-13211 (human).
T3 construct: R&D Systems 1250-S3; also called recombinant human Sema3A-Fc chimera
T3 sequence (chain, as listed by the source limits assumed): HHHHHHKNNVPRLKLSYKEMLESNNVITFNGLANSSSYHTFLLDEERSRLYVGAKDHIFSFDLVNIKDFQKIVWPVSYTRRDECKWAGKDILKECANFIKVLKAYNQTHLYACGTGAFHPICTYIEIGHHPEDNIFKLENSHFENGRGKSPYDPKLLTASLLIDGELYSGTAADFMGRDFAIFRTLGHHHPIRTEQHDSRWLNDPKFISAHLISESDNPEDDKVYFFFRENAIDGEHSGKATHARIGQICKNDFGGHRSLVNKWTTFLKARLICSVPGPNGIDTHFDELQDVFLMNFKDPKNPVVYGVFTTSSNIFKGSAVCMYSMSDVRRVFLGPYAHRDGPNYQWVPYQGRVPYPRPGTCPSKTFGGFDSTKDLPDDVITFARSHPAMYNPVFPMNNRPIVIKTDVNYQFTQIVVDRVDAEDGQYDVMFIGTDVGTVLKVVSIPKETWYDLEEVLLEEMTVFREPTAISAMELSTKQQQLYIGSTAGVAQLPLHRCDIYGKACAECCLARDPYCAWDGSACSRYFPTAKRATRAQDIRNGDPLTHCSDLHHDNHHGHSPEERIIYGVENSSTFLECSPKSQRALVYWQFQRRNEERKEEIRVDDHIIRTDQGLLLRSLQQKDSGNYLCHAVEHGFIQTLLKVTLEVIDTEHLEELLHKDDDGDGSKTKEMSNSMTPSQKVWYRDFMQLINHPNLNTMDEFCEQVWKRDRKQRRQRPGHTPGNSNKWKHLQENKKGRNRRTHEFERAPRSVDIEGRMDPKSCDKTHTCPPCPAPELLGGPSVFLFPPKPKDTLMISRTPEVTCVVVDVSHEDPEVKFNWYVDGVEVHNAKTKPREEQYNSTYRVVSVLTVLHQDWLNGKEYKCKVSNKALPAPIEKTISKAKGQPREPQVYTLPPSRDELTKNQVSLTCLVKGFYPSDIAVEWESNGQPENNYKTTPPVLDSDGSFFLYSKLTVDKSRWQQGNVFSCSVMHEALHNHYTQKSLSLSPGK
Description: SPR, captured IgG1, Sema3A-Fc analyte. As to the method:
as §1
In general terms: In SPR one partner is held on a chip, and binding of the other changes the refractive index at the surface.

Assay [3] concerns the target T4, Human Semaphorin3A-Sema Domain, TPP-19068 (human, UniProt Q14563 21-569).
T4 construct: produced inhouse in HEK293-6E; also called human monovalent Sema3A domain
T4 sequence: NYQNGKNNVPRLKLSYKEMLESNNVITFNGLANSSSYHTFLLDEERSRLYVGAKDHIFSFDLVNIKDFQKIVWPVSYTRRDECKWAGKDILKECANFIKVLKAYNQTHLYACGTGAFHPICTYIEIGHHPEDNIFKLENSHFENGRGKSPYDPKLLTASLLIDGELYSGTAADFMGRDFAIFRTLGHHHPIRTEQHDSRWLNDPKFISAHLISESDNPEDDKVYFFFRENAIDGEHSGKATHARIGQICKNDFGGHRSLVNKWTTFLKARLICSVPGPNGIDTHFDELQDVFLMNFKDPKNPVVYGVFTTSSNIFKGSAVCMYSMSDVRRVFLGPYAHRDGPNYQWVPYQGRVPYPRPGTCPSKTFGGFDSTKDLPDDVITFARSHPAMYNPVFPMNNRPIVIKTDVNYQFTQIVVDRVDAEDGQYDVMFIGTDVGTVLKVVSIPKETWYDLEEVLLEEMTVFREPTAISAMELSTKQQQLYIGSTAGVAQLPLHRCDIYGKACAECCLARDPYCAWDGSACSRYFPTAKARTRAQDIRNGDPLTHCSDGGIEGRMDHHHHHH
The experiment in a line: SPR, 100 nM TPP-19068, binding experiment. As to the method: as §1

B1: TPP-15374 (antibody, human IgG1, lambda, V domains shown)
VH: EVQLLESGGGLVQPGGSLRLSCAASGFTFSSYEMNWVRQAPGKGLEWVSGISWNSGSIGYADSVKGRFTISRDNSKNTLYLQMNSLRAEDTAVYYCARSGYSSSWFDPDFDYWGQGTLVTVSS
VL: QSVLTQPPSASGTPGQRVTISCTGSSSNIGAGYDVHWYQQLPGTAPKLLIYGNSNRPSGVPDRFSGSKSGTSASLAISGLRSEDEADYYCSSYAGSNPYVVFGGGTKLTVLG
notes: human IgG1; also called IgG1, hit from panning; parental mAb
In the case of B1, the binding result in the assay with Sema3D (R&D Systems) is “no binding”. Besides, the Kd in assay [1] and in assay [2] was 18 nM each time.

B2: TPP-17755 (antibody, human IgG1, lambda, V domains shown)
VH: EVQLLESGGGLVQTGGSLRLSCAASGFTFSDYAMSWVRQAPGKGLEWVSWIYYDSGSKYYADSVKGRFTISRDNSKNTLYLQMNSLRAEDTAVYYCAKLNGDFDYWGQGTLVTVSS
VL: QSVLTQPPSASGTPGQRVTISCSGSSSNIGNNDVSWYQQLPGTAPKLLIYADSHRPSGVPDRFSGSKSGTSASLAISGLRSEDEADYYCGAWDSSLSGYVFGGGTKLTVLG
notes: also called Samsung; Samsung Prior Art F11
As to B2, the Kd in assay [3] amounted to 6.2 nM.

B3: TPP-30788 (antibody, human IgG1, kappa, V domains shown)
VH: EVQLVESGGGLVQPGGSLRLSCAASGFTFSSYYMSWVRQAPGKGLEWVSTIIKSGGYAYYPDSVKDRFTISRDNSKNTLYLQMSSLRAEDTAVYYCVRGGQGAMDYWGQGTTVTVSS
VL: EIVLTQSPATLSLSPGERATLSCRASQSIGDYLHWYQQKPGQAPRLLIKYASQSISGIPARFSGSGSGTDFTLTITSLEPEDFAVYYCQQGYSFPYTFGGGTKLEIKR
notes: prior art, WO 2020/225400; also called BI clone I; Böhringer (BI) Clone I
B3: the Kd in assay [3] came out at 0.098 nM.

B4: TPP-23298 (antibody, human IgG4 S228P, lambda, V domains shown)
VH: EVQLLESGGGLVQPGGSLRLSCAASGFTFYSYAMSWVRQAPGKGLEWVSAIGTGGDTYYADSVKGRFTISRDNSKNTLYLQMNSLRAEDTAVYYCARRDDYTSRDAFDYWGQGTLVTVSS
VL: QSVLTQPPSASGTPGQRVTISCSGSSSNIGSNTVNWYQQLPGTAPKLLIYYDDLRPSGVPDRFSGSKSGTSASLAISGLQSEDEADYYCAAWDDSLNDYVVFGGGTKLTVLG
For the molecule B4, binding in assay [3] was put at a Kd of 0.13 nM.

B5: TPP-15370 (antibody, human IgG1, lambda, V domains shown)
VH: EVQLLESGGGLVQPGGSLRLSCAASGFTFSSYGMHWVRQAPGKGLEWVSAIGTGGDTYYADSVMGRFTISRDNSKNTLYLQMNSLRAEDTAVYYCARRDDYTSRDAFDVWGQGTLVTVSS
VL: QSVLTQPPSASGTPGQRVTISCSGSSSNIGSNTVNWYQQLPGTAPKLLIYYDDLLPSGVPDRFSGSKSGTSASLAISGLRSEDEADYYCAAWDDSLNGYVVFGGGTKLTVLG
notes: as for B1
In the case of B5, the binding result in the assay with Sema3D (R&D Systems) is “no binding”. The values for the Kd in assay [1] and in assay [2] were 3.2 nM and 2.8 nM, respectively.
